These results are taken from patent US20090099029A1, “Methods and substrates for conducting assays” (Invitrogen Corporation, priority 2005, published 2009).

In one data set the test system is 39 kinases (Table 4).
Test: not given
To be noted: known general specificities of the inhibitors; cited from earlier work.
Take `Oc1ccc(-c2nc(-c3ccncc3)c(-c3ccc(F)cc3)[nH]2)cc1` [SB 202190]: the “General Specificity” value is on record as “Serine/threonine”.

For a further data set, the system named is kinases of Table 6 on Myelin Basic Protein (MBP). Briefly: Kinase assay using MBP substrate, ProQ Diamond stain (Table 6). Format: biochemical. As to conditions: kinase printed on MBP-coated slide; 20 uM ATP, 30° C.; ProQ Diamond Microarray Stain; graded Strong/Weak/Negative. How it is done: In this illustrative example, four-well slides were designed with a hydrophobic mask surrounding 4-wells of aldehyde- or epoxy-coated glass (smooth or ES grade; Erie Scientific (Portsmouth, N.H.)). […] Bovine, dephosphorylated, Myelin Basic Protein (MBP) was purchased from Upstate Biotechnology (#13-110). MBP was diluted to 1 mg/ml in PBS, applied to the slide surface, covered with a coverslip, and left overnight at 4° C. to coat the slide with the MBP. Slides were washed 3 times with water and spun dry before printing.
Kinases were purchased from Panvera (Invitrogen, Carlsbad, Calif.), diluted in printing buffer (50 mM Tris pH 7.5, 25% glyercol, 0.05% TritonX-100, 2 mM DTT) and deposited using a GeneMachine OmniGrid100. Slides were stored at −20° C.
Reactions were performed following removal of the slide from the freezer. Reaction buffer (20 mM HEPES pH 7.5, 4 mM MgCl2, 2 mM DTT, 20 uM ATP, 5% DMSO) was added with or without inhibitor, a coverslip applied, and the slide placed at 30° C. for the appropriate reaction time. The slide was washed with water to stop the reaction (3 times) and spun dry. ProQ Diamond Microarray Stain (Invitrogen #P33706) was applied, covered with a coverslip, and the slide was incubated in the dark at room temperature for 30 minutes. The slide was destained and washed three times with water, and spun dry.
Regarding MST4, the “MBP Kinase Activity” value is listed as “Negative”.

For ABL1, the “MBP Kinase Activity” value is given as “Weak”.

As to CSNK1E(CK1eps), the “MBP Kinase Activity” value is recorded as “Negative”.

As for RPS6KA5(MSK1), the “MBP Kinase Activity” value is “Weak”.

As to GRK5, the “MBP Kinase Activity” value was “Negative”.

For the compound CHEK2, the “MBP Kinase Activity” value is reported as “Strong”.

In the case of KDR(VEGFR2), the “MBP Kinase Activity” value is listed as “Strong”.

Regarding PRKCA, the “MBP Kinase Activity” value is “Strong”.

Consider PRKCI, for which the “MBP Kinase Activity” value is reported as “Strong”.

Consider IKBKB, for which the “MBP Kinase Activity” value was “Weak”.

Take MLCK: the “MBP Kinase Activity” value is recorded as “Negative”.

With EPHA7, the “MBP Kinase Activity” value is “Weak”.

For the compound MAPK3(ERK1), the “MBP Kinase Activity” value was “Strong”.

As for TBK1, the “MBP Kinase Activity” value is given as “Strong”.

Take ADRBK1(GRK2): the “MBP Kinase Activity” value is recorded as “Negative”.

With PRKCQ, the “MBP Kinase Activity” value is given as “Strong”.

In the case of PRKCB2, the “MBP Kinase Activity” value is “Strong”.

For PIM2, the “MBP Kinase Activity” value is “Weak”.

In the case of CSNK1G3, the “MBP Kinase Activity” value was “Weak”.

INSR: the “MBP Kinase Activity” value was “Strong”.

With FYN, the “MBP Kinase Activity” value was “Strong”.

Regarding PRKCG, the “MBP Kinase Activity” value is listed as “Strong”.

Consider ERBB2, for which the “MBP Kinase Activity” value was “Negative”.

Take WEE1: the “MBP Kinase Activity” value is recorded as “Negative”.

Turning to PRKCD, the “MBP Kinase Activity” value was “Strong”.

Take BLK: the “MBP Kinase Activity” value was “Weak”.

Turning to CSNK2A1(CK2alpha1), the “MBP Kinase Activity” value is “Strong”.

As for CLK3, the “MBP Kinase Activity” value is on record as “Strong”.

As for STK25(YSK1), the “MBP Kinase Activity” value is “Strong”.

Take PHKG1: the “MBP Kinase Activity” value is given as “Negative”.

Turning to NTRK2, the “MBP Kinase Activity” value is given as “Strong”.

For PTK6(BRK), the “MBP Kinase Activity” value is recorded as “Strong”.

In the case of NTRK1, the “MBP Kinase Activity” value was “Strong”.

With YES1, the “MBP Kinase Activity” value was “Weak”.

With LYNA, the “MBP Kinase Activity” value is on record as “Weak”.

Take MAP2K1(MEK1): the “MBP Kinase Activity” value is reported as “Negative”.

Take PRKCB1: the “MBP Kinase Activity” value is reported as “Strong”.

Consider CDK5/p35, for which the “MBP Kinase Activity” value is on record as “Strong”.

Regarding MAP4K5(KHS1), the “MBP Kinase Activity” value is “Negative”.

With FGFR1, the “MBP Kinase Activity” value was “Strong”.

Regarding CSNK1G2, the “MBP Kinase Activity” value is “Negative”.

PIM1: the “MBP Kinase Activity” value is on record as “Strong”.

RPS6KA3(RSK2): the “MBP Kinase Activity” value is reported as “Strong”.

Consider MAP2K2(MEK2), for which the “MBP Kinase Activity” value is reported as “Negative”.

CSNK1G1(CK1gamma1): the “MBP Kinase Activity” value is “Negative”.

Regarding NTRK3, the “MBP Kinase Activity” value is “Strong”.

Regarding GSK3B, the “MBP Kinase Activity” value is “Negative”.

Regarding MAPKAPK2, the “MBP Kinase Activity” value is listed as “Strong”.

LCK: the “MBP Kinase Activity” value was “Strong”.

Regarding PLK1, the “MBP Kinase Activity” value is on record as “Negative”.

For NEK7, the “MBP Kinase Activity” value is “Negative”.

As to AKT1, the “MBP Kinase Activity” value is listed as “Strong”.

Consider FGR, for which the “MBP Kinase Activity” value is listed as “Weak”.

STK6(AuroraA): the “MBP Kinase Activity” value is listed as “Weak”.

As to HCK, the “MBP Kinase Activity” value is given as “Strong”.

In the case of CLK4, the “MBP Kinase Activity” value is recorded as “Negative”.

Regarding STK24(MST3), the “MBP Kinase Activity” value was “Weak”.

Turning to PKN1(PRK1), the “MBP Kinase Activity” value is on record as “Strong”.

For the compound CLK1, the “MBP Kinase Activity” value is “Strong”.

On to MAPK1(ERK2), for which the “MBP Kinase Activity” value is given as “Strong”.

Take NEK6: the “MBP Kinase Activity” value was “Negative”.
